Experimental data reported in paper PMC3499988 (Biochemistry, 2011).
Substitutions are numbered along the chain they refer to. In names and notes the source's numbering stands.

B1: Fab m18 (wild type) (Fab, V domains shown)
VH: VQLLESGPGVVKPSETLSLTCTVSGASVNNYYWTWVRQPPGKGLEWIGNVYDSGDTNYNPSLSSRLSLSMDTSKNQFSLRLSSVTAADTATYYCARYHRHFIRGPLSFDYWGRGTLVTVSS
VL: LQMTQSPSFLSASVGDRVSITCRASQDIQKFLAWYQLTPGDAPKLLMYSASTLQSGVPSRFSGSGSGTEFTLTISGLQPEDFATYYCQHLKRYPYTFGQGTKLEIS
B2: Fab m18 T53A (LCDR2) (Fab, V domains shown)
VH: B1 VH
VL: B1 VL with T52A
B3: Fab m18 S54A (HCDR2) (Fab, V domains shown)
VH: B1 VH with S53A
VL: B1 VL
B4: Fab m18 P61A (HCDR2) (Fab, V domains shown)
VH: B1 VH with P60A
VL: B1 VL
B5: Fab m18 D53A (HCDR2) (Fab, V domains shown)
VH: B1 VH with D52A
VL: B1 VL
B6: Fab m18 S56A (LCDR2) (Fab, V domains shown)
VH: B1 VH
VL: B1 VL with S55A
B7: Fab m18 N30A (HCDR1) (Fab, V domains shown)
VH: B1 VH with N29A
VL: B1 VL
B8: Fab m18 Y32A (HCDR1) (Fab, V domains shown)
VH: B1 VH with Y31A
VL: B1 VL
B9: Fab m18 S65A (HCDR2) (Fab, V domains shown)
VH: B1 VH with S64A
VL: B1 VL
B10: Fab m18 R24A (LCDR1) (Fab, V domains shown)
VH: B1 VH
VL: B1 VL with R23A
B11: Fab m18 D56A (HCDR2) (Fab, V domains shown)
VH: B1 VH with D55A
VL: B1 VL
B12: Fab m18 Y102A (HCDR3) (Fab, V domains shown)
VH: B1 VH with Y110A
VL: B1 VL
B13: Fab m18 S62A (HCDR2) (Fab, V domains shown)
VH: B1 VH with S61A
VL: B1 VL
B14: Fab m18 K31R (LCDR1) (Fab, V domains shown)
VH: B1 VH
VL: B1 VL with K30R
B15: Fab m18 T57A (HCDR2) (Fab, V domains shown)
VH: B1 VH with T56A
VL: B1 VL
B16: Fab m18 D28A (LCDR1) (Fab, V domains shown)
VH: B1 VH
VL: B1 VL with D27A
B17: Fab m18 Q30A (LCDR1) (Fab, V domains shown)
VH: B1 VH
VL: B1 VL with Q29A
B18: Fab m18 H96A (HCDR3) (Fab, V domains shown)
VH: B1 VH with H98A
VL: B1 VL
B19: Fab m18 Q27A (LCDR1) (Fab, V domains shown)
VH: B1 VH
VL: B1 VL with Q26A
B20: Fab m18 N31A (HCDR1) (Fab, V domains shown)
VH: B1 VH with N30A
VL: B1 VL
B21: Fab m18 Y33A (HCDR1) (Fab, V domains shown)
VH: B1 VH with Y32A
VL: B1 VL
B22: Fab m18 Y33F (HCDR1) (Fab, V domains shown)
VH: B1 VH with Y32F
VL: B1 VL
B23: Fab m18 R93A (LCDR3) (Fab, V domains shown)
VH: B1 VH
VL: B1 VL with R92A
B24: Fab m18 S64A (HCDR2) (Fab, V domains shown)
VH: B1 VH with S63A
VL: B1 VL
B25: Fab m18 R100aA (HCDR3) (Fab, V domains shown)
VH: B1 VH with R103A
VL: B1 VL
B26: Fab m18 R100aE (HCDR3) (Fab, V domains shown)
VH: B1 VH with R103E
VL: B1 VL
B27: Fab m18 P95A (LCDR3) (Fab, V domains shown)
VH: B1 VH
VL: B1 VL with P94A

What follows are binders tested against T1, HIV-1 YU-2 gp120 (HIV-1 (YU-2), UniProt P35961) (assay: SPR).

Going from B1 to B2, the Kd rises from 1.4 nM to 35.2 nM (25-fold). The first binds more tightly here.

Compared with B3, B4 is 2.9-fold lower in Kd: 56.4 nM for the first, 19.3 nM for the second. The second binds more tightly here.

Compared with B5, B6 is 3.7-fold higher in Kd: 7 nM for the first, 25.7 nM for the second. The first binds more tightly here.

Going from B7 to B8, the Kd falls from 40.9 nM to 0.4 nM (100-fold).

Going from B9 to B10, the Kd falls from 39.1 nM to 16.8 nM (2.3-fold). The second binds more tightly here.

B11 and B12 are within 1.5-fold of each other in Kd: 26.2 nM for the first, 31.5 nM for the second.

B13 and B14 are within 1.5-fold of each other in Kd: 44.2 nM for the first, 34.7 nM for the second.

Going from B15 to B16, the Kd falls from 2.5 nM to 0.7 nM (3.6-fold).

Going from B17 to B18, the Kd rises from 1.4 nM to 11.7 nM (8.4-fold).

Going from B19 to B20, the Kd rises from 6.7 nM to 25.9 nM (3.9-fold). The first binds more tightly here.

First: B21
Second: B22
The Kd of the first is 1.8-fold lower: 30.7 nM for the first, 56.3 nM for the second. The first binds more tightly here.

First: B23
Second: B24
The Kd of the first is 20-fold lower: 2 nM for the first, 40 nM for the second.

Going from B25 to B26, the Kd rises from 2.3 nM to 69.2 nM (30-fold). The first binds more tightly here.

B27 gave a Kd of 35.5 nM.

B1 and B2 are within error of each other in koff: 9.8e-05 s⁻¹ for the first, 0.00071 ± 7 s⁻¹ for the second.

B3 and B4 are within error of each other in koff: 0.0022 ± 0.7 s⁻¹ for the first, 0.00063 ± 1 s⁻¹ for the second.

B5 and B6 are within error of each other in koff: 0.00012 ± 1.1 s⁻¹ for the first, 0.00066 ± 1.4 s⁻¹ for the second.

B7 and B8 are within error of each other in koff: 0.0017 ± 0.3 s⁻¹ for the first, 6.1e-05 s⁻¹ for the second.

B9 and B10 are within error of each other in koff: 0.0014 ± 0.2 s⁻¹ for the first, 0.00039 ± 3.7 s⁻¹ for the second.

B11 and B12 are within error of each other in koff: 0.00061 ± 4.5 s⁻¹ for the first, 0.0012 ± 0.4 s⁻¹ for the second.

B13 and B14 are within error of each other in koff: 0.0016 ± 0.4 s⁻¹ for the first, 0.0011 ± 0.2 s⁻¹ for the second.

B15 and B16 are within error of each other in koff: 0.00021 ± 0.4 s⁻¹ for the first, 1.9e-05 s⁻¹ for the second.

B17 and B18 are within error of each other in koff: 0.00012 ± 0.1 s⁻¹ for the first, 0.0011 ± 0.6 s⁻¹ for the second.

B19 and B20 are within error of each other in koff: 0.00049 ± 3.9 s⁻¹ for the first, 0.0013 ± 0.5 s⁻¹ for the second.

B21 and B22 are within error of each other in koff: 0.0038 ± 0.2 s⁻¹ for the first, 0.0024 ± 0.8 s⁻¹ for the second.

B23 and B24 are within error of each other in koff: 8e-05 s⁻¹ for the first, 0.00086 ± 5.9 s⁻¹ for the second.

B25 and B26 are within error of each other in koff: 7.6e-05 s⁻¹ for the first, 0.0011 ± 0.7 s⁻¹ for the second.

In the case of B27, the koff is reported as 0.0019 ± 0.3 s⁻¹.

Compared with B1, B2 is 3.5-fold lower in kon: 69000 ± 0.3 M⁻¹ s⁻¹ for the first, 20000 ± 2.1 M⁻¹ s⁻¹ for the second.

B3 and B4 are within 1.5-fold of each other in kon: 39000 ± 0.5 M⁻¹ s⁻¹ for the first, 33000 ± 1 M⁻¹ s⁻¹ for the second.

Going from B5 to B6, the kon rises from 16000 ± 1.3 M⁻¹ s⁻¹ to 28000 ± 0.7 M⁻¹ s⁻¹ (1.8-fold).

Going from B7 to B8, the kon rises from 40000 ± 0.4 M⁻¹ s⁻¹ to 120000 ± 0.2 M⁻¹ s⁻¹ (3-fold).

Compared with B9, B10 is 1.6-fold lower in kon: 36000 ± 1.2 M⁻¹ s⁻¹ for the first, 23000 ± 0.9 M⁻¹ s⁻¹ for the second.

B11 and B12 are within 1.5-fold of each other in kon: 25000 ± 0.6 M⁻¹ s⁻¹ for the first, 37000 ± 1.4 M⁻¹ s⁻¹ for the second.

B13 and B14 are within 1.5-fold of each other in kon: 35000 ± 0.9 M⁻¹ s⁻¹ for the first, 31000 ± 1.2 M⁻¹ s⁻¹ for the second.

Going from B15 to B16, the kon falls from 84000 ± 2 M⁻¹ s⁻¹ to 28000 ± 3.1 M⁻¹ s⁻¹ (3-fold).

B17 and B18 are within 1.5-fold of each other in kon: 91000 ± 0.1 M⁻¹ s⁻¹ for the first, 93000 ± 2.9 M⁻¹ s⁻¹ for the second.

B19 and B20 are within 1.5-fold of each other in kon: 72000 ± 2.9 M⁻¹ s⁻¹ for the first, 51000 ± 1 M⁻¹ s⁻¹ for the second.

First: B21
Second: B22
The kon of the first is 2.9-fold higher: 120000 ± 0.5 M⁻¹ s⁻¹ for the first, 42000 ± 1.9 M⁻¹ s⁻¹ for the second.

Compared with B23, B24 is 1.9-fold lower in kon: 39000 ± 0.2 M⁻¹ s⁻¹ for the first, 21000 ± 0.7 M⁻¹ s⁻¹ for the second.

Compared with B25, B26 is 2.1-fold lower in kon: 34000 ± 0.9 M⁻¹ s⁻¹ for the first, 16000 ± 0.6 M⁻¹ s⁻¹ for the second.

With B27 the kon was 53000 ± 1.6 M⁻¹ s⁻¹.

What follows are binders tested against T2, HIV-1 HXBc2 gp120 (HIV-1 (HXBc2), UniProt P04578) (assay: SPR).

In the case of B1, the Kd is reported as 4.3 nM.

For B1, the koff was 0.00022 ± 0.9 s⁻¹.

B1 showed a kon of 52000 ± 2.2 M⁻¹ s⁻¹.

Biological target: T1, HIV-1 YU-2 gp120
Assay: SPR
Remark: another data set of the same source

Going from B1 to B2, the IC50 rises from 33 ± 3.6 nM to over 500 nM. The first is the more potent here.

B3 and B4 cannot be ordered by IC50: over 1000 nM for the first, over 1000 nM for the second.

B5 and B6 cannot be ordered by IC50: over 500 nM for the first, over 500 nM for the second.

Going from B7 to B8, the IC50 falls from over 1000 nM to 247 ± 15.8 nM. The second is the more potent here.

B9 and B10 cannot be ordered by IC50: over 1000 nM for the first, over 1000 nM for the second.

B11 and B12 cannot be ordered by IC50: over 1000 nM for the first, over 1000 nM for the second.

B13 and B14 cannot be ordered by IC50: over 1000 nM for the first, over 1000 nM for the second.

First: B15
Second: B16
The IC50 of the first is 3.9-fold lower: 16.8 ± 3.8 nM for the first, 65.5 ± 0.5 nM for the second.

Compared with B17, B18 is higher in IC50: 80.3 ± 16.7 nM for the first, over 500 nM for the second.

Going from B19 to B20, the IC50 rises from 49.6 ± 3.1 nM to over 1000 nM. The first is the more potent here.

Compared with B21, B22 is higher in IC50: 135 ± 7.1 nM for the first, over 1000 nM for the second.

First: B23
Second: B24
The IC50 of the first is lower: 49.5 ± 20.5 nM for the first, over 1000 nM for the second. The first is the more potent here.

B25 and B26 cannot be ordered by IC50: over 500 nM for the first, over 1000 nM for the second.

B27 showed an IC50 of over 1000 nM.

Biological target: T2, HIV-1 HXBc2 gp120
Assay: SPR
Remark: another data set of the same source

For B1, the IC50 was 36.1 ± 12.9 nM.

Biological target: T1, HIV-1 YU-2 gp120
Assay: SPR
Remark: another data set of the same source

Going from B1 to B2, the IC50 rises from 36 ± 1.2 nM to over 500 nM.

B3 and B4 cannot be ordered by IC50: over 1000 nM for the first, over 1000 nM for the second.

B5 and B6 cannot be ordered by IC50: over 500 nM for the first, over 500 nM for the second.

First: B7
Second: B8
The IC50 of the first is higher: over 1000 nM for the first, 432 ± 31.5 nM for the second.

B9 and B10 cannot be ordered by IC50: over 1000 nM for the first, over 1000 nM for the second.

B11 and B12 cannot be ordered by IC50: over 1000 nM for the first, over 1000 nM for the second.

B13 and B14 cannot be ordered by IC50: over 1000 nM for the first, over 1000 nM for the second.

First: B15
Second: B16
The IC50 of the first is 2.1-fold lower: 33.1 ± 8 nM for the first, 70.8 ± 1.8 nM for the second.

First: B17
Second: B18
The IC50 of the first is lower: 129 ± 5 nM for the first, over 500 nM for the second.

First: B19
Second: B20
The IC50 of the first is lower: 54.5 ± 3.5 nM for the first, over 1000 nM for the second.

Going from B21 to B22, the IC50 rises from 150 ± 3.5 nM to over 1000 nM. The first is the more potent here.

Compared with B23, B24 is higher in IC50: 78.7 ± 3.2 nM for the first, over 1000 nM for the second.

B25 and B26 cannot be ordered by IC50: over 500 nM for the first, over 1000 nM for the second.

Binder B27 has an IC50 of over 1000 nM.

Biological target: T2, HIV-1 HXBc2 gp120
Assay: SPR
Remark: another data set of the same source

B1 gave an IC50 of 56.9 ± 13 nM.
